According to US20190390248:

Target: human prothrombin (UniProt P00734)

With “carinactivase-2 from Echis carinatus venom” the “percent of S-2238 hydrolysed by the thrombin formed” value was “followed by carinactivase-2 (2.5%)” and the Thrombin generation rate (scale: nmol thrombin/mL/min/µmol prothrombin/µmol activator) was 1.91.
